Data from paper PMC9719539 (2022).
Like-named read-outs stand apart in the source and are kept apart here. Positions of bridges follow the written chain, without caps; N, C: chain ends. Non-standard residues stand in square brackets, D forms with d. No end group written: not given here.

B1: Biogen-αVβ1.5 Fab (Fab, V domains shown)
VH: EVQLVESGGGVVQPGRSLRLSCAASGFTFKYYGMHWVRQAPGKGLEWVASIWYDGSNKKYADSVKGRFTISRDNSKNTLYLQMNSLRAEDTAVYYCARGGPTRGDGTRVYYYGMDVWGQGTTVTVSS
VL: EIVMTQSPATLSVSPGERATLSCRASQSVSSNLAWYQQKPGQAPRLLIYSASTRATGIPARFSGSGSGTEFTLTISSLQSEDFAVYYCQQYYHHPFTFGGGTKVEIK
B2: integrin αVβ3 on intact cells (receptor)
chain 1: FNLDVDSPAEYSGPEGSYFGFAVDFFVPSASSRMFLLVGAPKANTTQPGIVEGGQVLKCDWSSTRRCQPIEFDATGNRDYAKDDPLEFKSHQWFGASVRSKQDKILACAPLYHWRTEMKQEREPVGTCFLQDGTKTVEYAPCRSQDIDADGQGFCQGGFSIDFTKADRVLLGGPGSFYWQGQLISDQVAEIVSKYDPNVYSIKYNNQLATRTAQAIFDDSYLGYSVAVGDFNGDGIDDFVSGVPRAARTLGMVYIYDGKNMSSLYNFTGEQMAAYFGFSVAATDINGDDYADVFIGAPLFMDRGSDGKLQEVGQVSVSLQRASGDFQTTKLNGFEVFARFGSAIAPLGDLDQDGFNDIAIAAPYGGEDKKGIVYIFNGRSTGLNAVPSQILEGQWAARSMPPSFGYSMKGATDIDKNGYPDLIVGAFGVDRAILYRARPVITVNAGLEVYPSILNQDNKTCSLPGTALKVSCFNVRFCLKADGKGVLPRKLNFQVELLLDKLKQKGAIRRALFLYSRSPSHSKNMTISRGGLMQCEELIAYLRDESEFRDKLTPITIFMEYRLDYRTAADTTGLQPILNQFTPANISRQAHILLDCGEDNVCKPKLEVSVDSDQKKIYIGDDNPLTLIVKAQNQGEGAYEAELIVSIPLQADFIGVVRNNEALARLSCAFKTENQTRQVVCDLGNPMKAGTQLLAGLRFSVHQQSEMDTSVKFDLQIQSSNLFDKVSPVVSHKVDLAVLAAVEIRGVSSPDHVFLPIPNWEHKENPETEEDVGPVVQHIYELRNNGPSSFSKAMLHLQWPYKYNNNTLLYILHYDIDGPMNCTSDMEINPLRIKISSLQTTEKNDTVAGQGERDHLITKRDLALSEGDIHTLGCGVAQCLKIVCQVGRLDRGKSAILYVKSLLWTETFMNKENQNHSYSLKSSASFNVIEFPYKNLPIEDITNSTLVTTNVTWGIQPAPMPVPVWVIILAVLAGLLLLAVLVFVMYRMGFFKRVRPPQEEQEREQLQPHENGEGNSET
chain 2: GPNICTTRGVSSCQQCLAVSPMCAWCSDEALPLGSPRCDLKENLLKDNCAPESIEFPVSEARVLEDRPLSDKGSGDSSQVTQVSPQRIALRLRPDDSKNFSIQVRQVEDYPVDIYYLMDLSYSMKDDLWSIQNLGTKLATQMRKLTSNLRIGFGAFVDKPVSPYMYISPPEALENPCYDMKTTCLPMFGYKHVLTLTDQVTRFNEEVKKQSVSRNRDAPEGGFDAIMQATVCDEKIGWRNDASHLLVFTTDAKTHIALDGRLAGIVQPNDGQCHVGSDNHYSASTTMDYPSLGLMTEKLSQKNINLIFAVTENVVNLYQNYSELIPGTTVGVLSMDSSNVLQLIVDAYGKIRSKVELEVRDLPEELSLSFNATCLNNEVIPGLKSCMGLKIGDTVSFSIEAKVRGCPQEKEKSFTIKPVGFKDSLIVQVTFDCDCACQAQAEPNSHRCNNGNGTFECGVCRCGPGWLGSQCECSEEDYRPSQQDECSPREGQPVCSQRGECLCGQCVCHSSDFGKITGKYCECDDFSCVRYKGEMCSGHGQCSCGDCLCDSDWTGYYCNCTTRTDTCMSSNGLLCSGRGKCECGSCVCIQPGSYGDTCEKCPTCPDACTFKKECVECKKFDRGALHDENTCNRYCRDEIESVKELKDTGKDAVNCTYKNEDDCVVRFQYYEDSSGKSILYVVEEPECPKGPDILVVLLSVMGAILLIGLAALLIWKLLITIHDRKEFAKFEEERARAKWDTANNPLYKEATSTFTNITYRGT
B3: integrin αVβ5 on intact cells (receptor)
chain 1: FNLDVDSPAEYSGPEGSYFGFAVDFFVPSASSRMFLLVGAPKANTTQPGIVEGGQVLKCDWSSTRRCQPIEFDATGNRDYAKDDPLEFKSHQWFGASVRSKQDKILACAPLYHWRTEMKQEREPVGTCFLQDGTKTVEYAPCRSQDIDADGQGFCQGGFSIDFTKADRVLLGGPGSFYWQGQLISDQVAEIVSKYDPNVYSIKYNNQLATRTAQAIFDDSYLGYSVAVGDFNGDGIDDFVSGVPRAARTLGMVYIYDGKNMSSLYNFTGEQMAAYFGFSVAATDINGDDYADVFIGAPLFMDRGSDGKLQEVGQVSVSLQRASGDFQTTKLNGFEVFARFGSAIAPLGDLDQDGFNDIAIAAPYGGEDKKGIVYIFNGRSTGLNAVPSQILEGQWAARSMPPSFGYSMKGATDIDKNGYPDLIVGAFGVDRAILYRARPVITVNAGLEVYPSILNQDNKTCSLPGTALKVSCFNVRFCLKADGKGVLPRKLNFQVELLLDKLKQKGAIRRALFLYSRSPSHSKNMTISRGGLMQCEELIAYLRDESEFRDKLTPITIFMEYRLDYRTAADTTGLQPILNQFTPANISRQAHILLDCGEDNVCKPKLEVSVDSDQKKIYIGDDNPLTLIVKAQNQGEGAYEAELIVSIPLQADFIGVVRNNEALARLSCAFKTENQTRQVVCDLGNPMKAGTQLLAGLRFSVHQQSEMDTSVKFDLQIQSSNLFDKVSPVVSHKVDLAVLAAVEIRGVSSPDHVFLPIPNWEHKENPETEEDVGPVVQHIYELRNNGPSSFSKAMLHLQWPYKYNNNTLLYILHYDIDGPMNCTSDMEINPLRIKISSLQTTEKNDTVAGQGERDHLITKRDLALSEGDIHTLGCGVAQCLKIVCQVGRLDRGKSAILYVKSLLWTETFMNKENQNHSYSLKSSASFNVIEFPYKNLPIEDITNSTLVTTNVTWGIQPAPMPVPVWVIILAVLAGLLLLAVLVFVMYRMGFFKRVRPPQEEQEREQLQPHENGEGNSET
chain 2: GLNICTSGSATSCEECLLIHPKCAWCSKEDFGSPRSITSRCDLRANLVKNGCGGEIESPASSFHVLRSLPLSSKGSGSAGWDVIQMTPQEIAVNLRPGDKTTFQLQVRQVEDYPVDLYYLMDLSLSMKDDLDNIRSLGTKLAEEMRKLTSNFRLGFGSFVDKDISPFSYTAPRYQTNPCIGYKLFPNCVPSFGFRHLLPLTDRVDSFNEEVRKQRVSRNRDAPEGGFDAVLQAAVCKEKIGWRKDALHLLVFTTDDVPHIALDGKLGGLVQPHDGQCHLNEANEYTASNQMDYPSLALLGEKLAENNINLIFAVTKNHYMLYKNFTALIPGTTVEILDGDSKNIIQLIINAYNSIRSKVELSVWDQPEDLNLFFTATCQDGVSYPGQRKCEGLKIGDTASFEVSLEARSCPSRHTEHVFALRPVGFRDSLEVGVTYNCTCGCSVGLEPNSARCNGSGTYVCGLCECSPGYLGTRCECQDGENQSVYQNLCREAEGKPLCSGRGDCSCNQCSCFESEFGKIYGPFCECDNFSCARNKGVLCSGHGECHCGECKCHAGYIGDNCNCSTDISTCRGRDGQICSERGHCLCGQCQCTEPGAFGEMCEKCPTCPDACSTKRDCVECLLLHSGKPDNQTCHSLCRDEVITWVDTIVKDDQEAVLCFYKTAKDCVMMFTYVELPSGKSNLTVLREPECGNTPNAMTILLAVVGSILLVGLALLAIWKLLVTIHDRREFAKFQSERSRARYEMASNPLYRKPISTHTVDFTFNKFNKSYNGTVD

Legend:
[1] = target: integrin αVβ1 on intact cells (human, UniProt P06756 31-1048; P05556 21-798); assay: FACS
[2] = target: B2; assay: FACS
[3] = target: T1, integrin α5β1 on intact cells (human, UniProt P08648 42-1049; P05556 21-798); assay: FACS
[4] = target: T1, integrin α5β1 on intact cells; assay: FACS; remark: listed apart in the source
IPI-αVβ3.13 [5] = assay: FACS; L15 medium
IPI-αVβ5.9 [6] = assay: FACS; L15 medium
IPI-αVβ3.13 [7] = assay: FACS; L15 + 1 mM Mn2+
IPI-αVβ5.9 [8] = assay: FACS; L15 + 1 mM Mn2+

T1 sequence (P08648 42-1049, chain 1 of 2): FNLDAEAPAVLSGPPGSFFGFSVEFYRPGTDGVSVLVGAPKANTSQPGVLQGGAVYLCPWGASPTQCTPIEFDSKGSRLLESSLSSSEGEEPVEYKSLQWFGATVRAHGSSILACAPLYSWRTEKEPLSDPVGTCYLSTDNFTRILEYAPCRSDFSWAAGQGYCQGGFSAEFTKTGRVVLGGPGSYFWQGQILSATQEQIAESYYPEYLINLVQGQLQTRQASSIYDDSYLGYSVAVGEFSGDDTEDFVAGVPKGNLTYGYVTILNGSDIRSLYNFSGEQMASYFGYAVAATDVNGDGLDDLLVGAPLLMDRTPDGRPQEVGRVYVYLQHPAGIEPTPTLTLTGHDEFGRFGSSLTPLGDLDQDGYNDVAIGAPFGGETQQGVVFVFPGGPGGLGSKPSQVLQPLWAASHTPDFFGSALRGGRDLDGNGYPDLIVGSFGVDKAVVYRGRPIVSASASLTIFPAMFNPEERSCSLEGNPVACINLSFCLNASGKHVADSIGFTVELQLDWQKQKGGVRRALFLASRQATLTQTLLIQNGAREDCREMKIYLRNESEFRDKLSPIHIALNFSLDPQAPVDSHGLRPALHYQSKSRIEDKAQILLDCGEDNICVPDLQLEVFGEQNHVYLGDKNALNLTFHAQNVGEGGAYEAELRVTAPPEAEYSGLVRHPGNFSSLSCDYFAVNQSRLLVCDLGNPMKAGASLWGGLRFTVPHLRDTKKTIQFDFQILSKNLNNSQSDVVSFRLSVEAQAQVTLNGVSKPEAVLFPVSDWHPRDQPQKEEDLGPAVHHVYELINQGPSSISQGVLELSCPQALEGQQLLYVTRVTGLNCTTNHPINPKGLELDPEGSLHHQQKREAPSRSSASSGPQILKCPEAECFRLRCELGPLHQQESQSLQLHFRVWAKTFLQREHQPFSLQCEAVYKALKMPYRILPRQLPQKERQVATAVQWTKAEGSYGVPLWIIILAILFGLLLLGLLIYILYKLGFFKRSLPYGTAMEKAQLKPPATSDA
T1 sequence (P05556 21-798, chain 2 of 2): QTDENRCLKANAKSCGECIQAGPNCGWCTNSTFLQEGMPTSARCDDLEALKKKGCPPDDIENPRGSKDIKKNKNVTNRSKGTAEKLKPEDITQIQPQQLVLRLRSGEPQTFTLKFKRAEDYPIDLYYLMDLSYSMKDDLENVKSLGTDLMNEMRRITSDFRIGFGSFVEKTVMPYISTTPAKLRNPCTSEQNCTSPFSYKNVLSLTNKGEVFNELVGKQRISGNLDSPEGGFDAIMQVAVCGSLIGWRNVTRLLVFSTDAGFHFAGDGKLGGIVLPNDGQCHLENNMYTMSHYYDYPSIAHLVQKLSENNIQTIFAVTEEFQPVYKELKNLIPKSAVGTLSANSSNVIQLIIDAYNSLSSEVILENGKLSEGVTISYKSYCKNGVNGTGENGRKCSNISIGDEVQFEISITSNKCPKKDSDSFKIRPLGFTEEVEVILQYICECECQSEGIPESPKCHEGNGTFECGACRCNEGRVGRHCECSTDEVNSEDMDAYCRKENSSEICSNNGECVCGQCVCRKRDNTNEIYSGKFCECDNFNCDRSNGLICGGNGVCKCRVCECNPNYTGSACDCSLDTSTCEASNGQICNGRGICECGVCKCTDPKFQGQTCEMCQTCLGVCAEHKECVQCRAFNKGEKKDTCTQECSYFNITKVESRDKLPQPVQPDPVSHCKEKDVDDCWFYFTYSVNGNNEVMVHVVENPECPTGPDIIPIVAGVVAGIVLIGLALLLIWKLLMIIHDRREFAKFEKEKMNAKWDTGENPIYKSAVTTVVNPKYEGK
Sequence of integrin αVβ1 on intact cells (P05556 21-798, one chain of several): as the sequence (P05556 21-798, chain 2 of 2) above

| Binder | Kd (IPI-αVβ5.9 [6]) [µM] | Kd (IPI-αVβ3.13 [7]) [µM] | Kd (IPI-αVβ5.9 [8]) [µM] | further results |
| --- | --- | --- | --- | --- |
| B1 | – | – | – | Kd [1]: 24 nM; Kd [2]: 78 µM |
| ACRGDGWCGK (disulfide 2-8 (inferred)) [cyclic-ACRGDGWCGK] | – | – | – | Kd [3]: 3.7 µM |
| cyclo(RGD[dF]K) [cyclo[Arg-Gly-Asp-D-Phe-Lys] (cRGDfK)] | – | – | – | Kd [4]: 86 nM |
| B2 | 10 | 0.023 | 16 | Kd (IPI-αVβ3.13 [5]): 56 nM |
| B3 | 0.043 | 50 | 0.024 | – |
